In article PMC10602907 (2023):
Read-outs that look alike come from different tables or passages of the source.

What was measured:
Assay in all cases: MST
[1] = target: FgHapX, 6xHis-tagged recombinant protein (Fusarium graminearum PH-1)
[2] = target: T1, FgSreA, 6xHis-tagged recombinant protein (Fusarium graminearum PH-1)
[3] = target: T1, FgSreA, 6xHis-tagged recombinant protein; remark: listed apart in the source

Row | Binder | Kd [1] [µM] | Kd [2] [µM] | Kd [3] [µM]
1 | FgUbp8, 6xHis-tagged recombinant protein (natural protein) MSARPTTPASPKNVRVKSPVPGLPMFGCEHIQLLLSKNQEVMNSSITHYKLILRGIFDATPIVPQTSTLDGRPVTSLTSNYLCLQCPSTVTEEERLRHGTKKQHRFYVDSRSGCLYCQICDDYIWDPTLEELRVRKIGTGSFSGRKRKHDELFTGSFKDDPRFISSNTNTASCRANGLRGIYNAGATCYQNVVLQSFLHNPLLRNFYLSDGHQSSDCQVSHCLSCAMDDMFQDFYALETTNGYTAANILSGFWISEKKAFENLVTTKEQDAHEFFQFLAEELHERNGDGKKPEIGSEHSCNCIMHQTFYGKMQTTTTCQNCSGQSNSIQSFLDLSLGLDNVVQKKSKRTGQKKPTVSLQDCLDEEYIKYDKCEYRCNNCNGTQQAKRHTSIKRLPNVLSIQLKRFEYKHGRHDRAASKVDNEVKFPLQLNMMPYTNRIRNHDSRESLELERSCTYDLLSVVVHVGELDTGHYTSYCRVGDQWFKFNDHKVELASLSDVLGAQAYLLFYIIRSLA | 1.9 |  | 
2 | FgSwc6, 6xHis-tagged recombinant protein (natural protein) MNNFGVIELASAKTTSAPGWAYVPDNTISRPTAPTNRKRARNVPGLTYSDLTARQDNKIRKEVEALDKDGGKDNTIPLPVKSGRVQGKHTPNVRKILQSQKTFGNHLDDFLAMQALVESNPAISRASGANSKRPSVSRKDTPSSSKPPPDEDTTMTDANLQPLLPEPSRSPPASHPGDYNPLLVSRVPDMPSDEELRRLLAHPPLNYGEATGTRDTKYPARSFCEVCGYWGRVRCMKCGTRVCALDCLEAHKEECVTRYGP |  | 398 | 3.04
